Measurements published in patent US12135332B2, “Mutant human estrogen receptor-α and methods of use thereof” (Case Western Reserve University, priority 2018, dated 2024).

Molecular target: ERE-DNA
Assay: Fluorescence anisotropy DNA-binding assay
Settings: 6-FAM-labeled ERE-DNA 20 nM, E2-bound hERα^CDE; read-out: DNA-binding affinity Kd
Description: FIGS. 8(a)-(e) are graphs relating to the purification and characterization of recombinant hERα. […] FIGS. 8(b) and (c) show the purification of hERα^CDE, specifically size exclusion chromatography of hERα^CDE in the absence (b) or presence (c) of ERE-DNA. Shown are the absorbance at 260 nm and 280 nm of hERα^CDE in the presence of estradiol and a coactivator TIF2 peptide. […] Data of 2.8-μM hERα^CDE in the presence of E2 were used as a saturation level and free 20-nM DNA data as a baseline. […] The binding of the hERα to a coactivator TIF2 peptide (sequence […]) (SEQ ID NO: 2) in the presence of E2 and ERE-DNA was measured by surface plasmon resonance (SPR). […]
To further assess the impact of this substitution on the receptor's ability to bind ERE-DNA, a biochemical DNA-binding assay was performed by detecting fluorescence anisotropy of 6-carboxyfluorescein-labeled ERE-DNA in the presence of increasing concentrations of the E2-bound hERα^CDE. […]
The fluorescence-conjugated double-strand ERE-DNA was prepared by annealing 6-FAM (6-carboxyfluorescein) 5′-labeled strands (5′-[…]-3′ (SEQ ID NO: 44) and 5′-[…]-3′ (SEQ ID NO: 45); IDT, Inc) in a buffer containing 10 mM CHES (pH 9.5), 50 mM KCl, 50 mM NaCl, 4 mM MgCl2, 50 mM arginine, 50 mM glutamic acid, 5 mM TCEP, 5% glycerol with 10 μM ZnCl2, and 10 μM E2. […]

Kd: 9.2 nM
B1: WT: recombinant wild-type human ERα segment with DBD and LBD, residues E181-P552 (protein)
chain: ETRYCAVCNDYASGYHYGVWSCEGCKAFFKRSIQGHNDYMCPATNQCTIDKNRRKSCQACRLRKCYEVGMMKGGIRKDRRGGRMLKHKRQRDDGEGRGEVGSAGDMRAANLWPSPLMIKRSKKNSLALSLTADQMVSALLDAEPPILYSEYDPTRPFSEASMMGLLTNLADRELVHMINWAKRVPGFVDLTLHDQVHLLECAWLEILMIGLVWRSMEHPGKLLFAPNLLLDRNQGKCVEGMVEIFDMLLATSSRFRMMNLQGEEFVCLKSIILLNSGVYTFLSSTLKSLEEKDHIHRVLDKITDTLIHLMAKAGLTLQQQHQRLAQLLLILSHIRHMSNKGMEHLYSMKCKNVVPLYDLLLEMLDAHRLHAP
